Data from paper PMC12411348 (2025).

Target: recombinant human pVHL (CUSABIO) (human, UniProt P40337-1 1-213)
Assay: SPR

recombinant human pVHL (CUSABIO), sequence (P40337 whole entry): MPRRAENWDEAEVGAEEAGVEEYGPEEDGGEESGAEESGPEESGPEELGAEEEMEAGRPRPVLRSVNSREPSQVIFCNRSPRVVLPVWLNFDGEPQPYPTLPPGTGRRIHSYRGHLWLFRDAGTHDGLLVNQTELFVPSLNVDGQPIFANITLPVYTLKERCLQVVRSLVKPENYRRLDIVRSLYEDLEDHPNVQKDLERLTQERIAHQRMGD

B1: recombinant TCF7L2(1–456) (domain or fragment)
chain: MPQLNGGGGDDLGANDELISFKDEGEQEEKSSENSSAERDLADVKSSLVNESETNQNSSSDSEAERRPPPRSESFRDKSRESLEEAAKRQDGGLFKGPPYPGYPFIMIPDLTSPYLPNGSLSPTARTLHFQSGSTHYSAYKTIEHQIAVQYLQMKWPLLDVQAGSLQSRQALKDARSPSPAHIVSNKVPVVQHPHHVHPLTPLITYSNEHFTPGNPPPHLPADVDPKTGIPRPPHPPDISPYYPLSPGTVGQIPHPLGWLVPQQGQPVYPITTGGFRHPYPTALTVNASMSRFPPHMVPPHHTLHTTGIPHPAIVTPTVKQESSQSDVGSLHSSKHQDSKKEEEKKKPHIKKPLNAFMLYMKEMRAKVVAECTLKESAAINQILGRRWHALSREEQAKYYELARKERQLHMQLYPGWSARDNYGKKKKRKRDKQPGETNEHSECFLNPCLSLPPIT
Kd: 806 nM
